Assay results as given in publication PMC10786891, “Massively parallel profiling of RNA-targeting CRISPR-Cas13d”.
Numbering of substitutions follows the chain as printed. In names and notes the source's numbering stands.

T1: EsCas13d, nuclease-dead (Eubacterium siraeum, UniProt B0MS50, R295A;H300A;R849A;H854A)
T1 sequence: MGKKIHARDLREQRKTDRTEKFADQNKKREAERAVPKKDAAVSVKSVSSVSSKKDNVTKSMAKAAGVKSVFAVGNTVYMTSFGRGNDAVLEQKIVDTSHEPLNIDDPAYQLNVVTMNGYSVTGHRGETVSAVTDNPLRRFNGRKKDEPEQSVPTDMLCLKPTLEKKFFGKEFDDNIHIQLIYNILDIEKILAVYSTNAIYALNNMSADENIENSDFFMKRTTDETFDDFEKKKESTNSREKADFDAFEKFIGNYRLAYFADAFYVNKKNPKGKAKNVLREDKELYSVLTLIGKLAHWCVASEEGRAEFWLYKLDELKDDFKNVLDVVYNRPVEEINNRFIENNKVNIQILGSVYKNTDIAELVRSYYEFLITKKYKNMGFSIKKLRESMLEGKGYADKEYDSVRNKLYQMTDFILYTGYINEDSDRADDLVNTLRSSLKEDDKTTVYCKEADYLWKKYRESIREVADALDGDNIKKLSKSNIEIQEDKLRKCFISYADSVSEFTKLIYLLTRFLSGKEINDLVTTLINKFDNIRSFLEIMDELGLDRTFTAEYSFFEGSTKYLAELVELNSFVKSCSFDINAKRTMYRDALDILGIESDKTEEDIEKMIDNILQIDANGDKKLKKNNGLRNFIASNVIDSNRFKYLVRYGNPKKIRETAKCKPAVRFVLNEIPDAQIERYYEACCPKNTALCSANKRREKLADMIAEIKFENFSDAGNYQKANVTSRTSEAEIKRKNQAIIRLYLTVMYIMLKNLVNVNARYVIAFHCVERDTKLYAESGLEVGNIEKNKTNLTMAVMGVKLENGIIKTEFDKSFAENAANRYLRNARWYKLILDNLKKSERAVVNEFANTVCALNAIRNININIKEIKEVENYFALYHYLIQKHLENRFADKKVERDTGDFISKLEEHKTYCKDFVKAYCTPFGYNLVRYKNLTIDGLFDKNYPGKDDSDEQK

B1: target 1 insG 3' of 18,insA 3' of 17 (mixed)
RNA 1: CACCCGUGCAAAAAUGCAGGGGUCUAAAACUGAGCGGAUAACCUCUCUAUGG
RNA 2: GGGAAUGGAUCCACAUCUACGAAUUCGUACCAUAGGAAGAGGUUAUCCGCUCACCGAGAUCGGAAGAGCACACGU
B2: target 1 insC 3' of 12,insA 3' of 7 (mixed)
RNA 1: B1 RNA 1
RNA 2: B1 RNA 2 with G36A, A37G, A40G, G41C, G42U, U44A, A45U, U46C, C47A
B3: target 1 G5C,C7G (mixed)
RNA 1: B1 RNA 1
RNA 2: GGGAAUGGAUCCACAUCUACGAAUUCGUACCAUAGAGAGGUUAUGCCCUCACCGAGAUCGGAAGAGCACACGU
B4: target 1 U10C,U11G (mixed)
RNA 1: B1 RNA 1
RNA 2: B3 RNA 2 with U41G, U42C, G45C, C47G
B5: target 1 G13A,A16G (mixed)
RNA 1: B1 RNA 1
RNA 2: B3 RNA 2 with A36G, G39A, G45C, C47G
B6: target 1 insA 3' of 17,insC 3' of 5 (mixed)
RNA 1: B1 RNA 1
RNA 2: GGGAAUGGAUCCACAUCUACGAAUUCGUACCAUAGAAGAGGUUAUCCGCCUCACCGAGAUCGGAAGAGCACACGU
B7: target 1 insC 3' of 9,insU 3' of 9 (mixed)
RNA 1: B1 RNA 1
RNA 2: B1 RNA 2 with G36A, A37G, A40G, G41U, G42U, U43A, U44C, A45U
B8: target 1 insC 3' of 15,insA 3' of 13 (mixed)
RNA 1: B1 RNA 1
RNA 2: B1 RNA 2 with G36A, A37G, A38C, G39A, A40G, G41A
B9: target 1 complement block 2-6 (mixed)
RNA 1: B1 RNA 1
RNA 2: B3 RNA 2 with G45C, C46G, C48G, U49A, C50G
B10: target 1 insG 3' of 7,insU 3' of 6 (mixed)
RNA 1: B1 RNA 1
RNA 2: B1 RNA 2 with G36A, A37G, A40G, G41U, G42U, U43A, A45C, U46G, C48U
B11: target 1 insA 3' of 21,insG 3' of 1 (mixed)
RNA 1: B1 RNA 1
RNA 2: B6 RNA 2 with U33A, A34U, G35A, A36G, C50U, U51C, C52A, A53G
B12: target 1 insU 3' of 7,insA 3' of 4 (mixed)
RNA 1: B1 RNA 1
RNA 2: B6 RNA 2 with A37G, G38A, A39G, G41U, U43A, A44U, U45C, C46U, C50A
B13: target 1 U3A,G12U (mixed)
RNA 1: B1 RNA 1
RNA 2: B3 RNA 2 with G40U, G45C, C47G, U49A
B14: target 1 insC 3' of 22,insU 3' of 2 (mixed)
RNA 1: B1 RNA 1
RNA 2: B6 RNA 2 with A32C, U33A, A34U, G35A, A36G, C50U, U51C, C52U
B15: target 1 insG 3' of 11,insU 3' of 5 (mixed)
RNA 1: B1 RNA 1
RNA 2: B6 RNA 2 with A37G, G38A, A39G, G41U, U42G, C49U
B16: target 1 insA 3' of 22,insC 3' of 3 (mixed)
RNA 1: B1 RNA 1
RNA 2: B6 RNA 2 with C31A, A32C, U33A, A34U, G35A, A36G, C50U, U51C
B17: target 1 insC 3' of 18,insG 3' of 10 (mixed)
RNA 1: B1 RNA 1
RNA 2: B1 RNA 2 with G35C, A38G, G39A, A40G, G42U, U44G
B18: target 1 A1C,U10A (mixed)
RNA 1: B1 RNA 1
RNA 2: B3 RNA 2 with U42A, G45C, C47G, A51C
B19: target 1 insA 3' of 7,insA 3' of 6 (mixed)
RNA 1: B1 RNA 1
RNA 2: B1 RNA 2 with G36A, A37G, A40G, G41U, G42U, U43A, A45C, U46A, C48A
B20: target 1 A1G,U10A (mixed)
RNA 1: B1 RNA 1
RNA 2: B3 RNA 2 with U42A, G45C, C47G, A51G
B21: target 1 A1U,U10A (mixed)
RNA 1: B1 RNA 1
RNA 2: B3 RNA 2 with U42A, G45C, C47G, A51U
B22: target 1 C2G,A20U (mixed)
RNA 1: B1 RNA 1
RNA 2: B3 RNA 2 with A32U, G45C, C47G, C50G
B23: target 1 insA 3' of 4,insC 3' of 3 (mixed)
RNA 1: B1 RNA 1
RNA 2: GGGAAUGGAUCCACAUCUACGAAUUCGUACCAUAGAGAGGUUAUCCGCAUCCACCGAGAUCGGAAGAGCACACGU
B24: target 1 complement block 7-11 (mixed)
RNA 1: B1 RNA 1
RNA 2: B3 RNA 2 with U41A, U42A, A43U, U44A, C47G
B25: target 1 insA 3' of 13,insG 3' of 10 (mixed)
RNA 1: B1 RNA 1
RNA 2: B1 RNA 2 with G36A, A37G, G42U, U44G
B26: target 1 U10A,U19A (mixed)
RNA 1: B1 RNA 1
RNA 2: B3 RNA 2 with U33A, U42A, G45C, C47G
B27: target 1 insC 3' of 5,insC 3' of 3 (mixed)
RNA 1: B1 RNA 1
RNA 2: B23 RNA 2 with A49C
B28: target 1 insA 3' of 17,insG 3' of 16 (mixed)
RNA 1: B1 RNA 1
RNA 2: B1 RNA 2 with G36A, A38G
B29: target 1 C7U,G15C (mixed)
RNA 1: B1 RNA 1
RNA 2: B3 RNA 2 with G37C, G45U, C47G
B30: target 1 C6G,A14C (mixed)
RNA 1: B1 RNA 1
RNA 2: B3 RNA 2 with A38C, G45C, C46G, C47G
B31: target 1 U10A (mixed)
RNA 1: B1 RNA 1
RNA 2: B3 RNA 2 with U42A, G45C, C47G
B32: target 1 insU 3' of 22,insU 3' of 15 (mixed)
RNA 1: B1 RNA 1
RNA 2: B1 RNA 2 with C31U, A32C, U33A, A34U, G35A, A38G, G39U
B33: target 1 insU 3' of 17,insA 3' of 11 (mixed)
RNA 1: B1 RNA 1
RNA 2: B1 RNA 2 with G36U, A38G, G39A, A40G, G42U, U43A

molecular target: T1, EsCas13d, nuclease-dead; assay: crRNA (strand 1, pre-loaded); Mg2+; 40 mM Tris-HCl pH 7.5, 150 mM NaCl, 6 mM MgCl2, 1 mM DTT, 0.1% Tween-20, 0.2 mg/ml BSA; 25 C; 10 min per concentration, then washed; details: tags: His6-TwinStrep-SUMO cleaved; N-terminal SNAP kept (SNAP-Surface 488); label: 3' end held by stalled T7 RNA polymerase

Question: B1 was tested. Which Kd did it give?
Answer: 53 ± 8 nM

Question: How did the Kd turn out when B2 was run?
Answer: 12.7 ± 0.5 nM

Question: Which Kd does the source give for B3 here?
Answer: 15.8 ± 0.9 nM

Question: B4 was tested. Which Kd did it give?
Answer: 29.2 ± 2.6 nM

Question: B5 was tested. Which Kd did it give?
Answer: 30 ± 4 nM

Question: For B6, which Kd is on record?
Answer: 32.2 ± 2.7 nM

Question: How did the Kd turn out when B7 was run?
Answer: 7.9 ± 0.9 nM

Question: With B8 as the binder, how does the Kd read?
Answer: 27.6 ± 2.8 nM

Question: Which Kd does the source give for B9 here?
Answer: 12.3 ± 0.5 nM

Question: B10 was tested. Which Kd did it give?
Answer: 8.24 ± 0.34 nM

Question: With B11 as the binder, how does the Kd read?
Answer: 15.5 ± 0.8 nM

Question: For B12, which Kd is on record?
Answer: 9.7 ± 0.7 nM

Question: How did the Kd turn out when B13 was run?
Answer: 7.58 ± 0.34 nM

Question: For B14, which Kd is on record?
Answer: 23 ± 4 nM

Question: With B15 as the binder, how does the Kd read?
Answer: 39 ± 5 nM

Question: B16 was tested. Which Kd did it give?
Answer: 16.1 ± 2.5 nM

Question: With B17 as the binder, how does the Kd read?
Answer: ~70 nM

Question: How did the Kd turn out when B18 was run?
Answer: 26.2 ± 2.2 nM

Question: B19 was tested. Which Kd did it give?
Answer: 7.46 ± 0.33 nM

Question: With B20 as the binder, how does the Kd read?
Answer: 8.5 ± 0.6 nM

Question: With B21 as the binder, how does the Kd read?
Answer: 8.8 ± 0.4 nM

Question: For B22, which Kd is on record?
Answer: 39 ± 7 nM

Question: Which Kd does the source give for B23 here?
Answer: 19.9 ± 2.5 nM

Question: With B24 as the binder, how does the Kd read?
Answer: 13.3 ± 0.6 nM

Question: B25 was tested. Which Kd did it give?
Answer: 7.2 ± 0.5 nM

Question: How did the Kd turn out when B26 was run?
Answer: 48 ± 7 nM

Question: Which Kd does the source give for B27 here?
Answer: 22.3 ± 1.8 nM

Question: For B28, which Kd is on record?
Answer: 18.7 ± 1.5 nM

Question: B29 was tested. Which Kd did it give?
Answer: 48 ± 7 nM

Question: For B30, which Kd is on record?
Answer: 13.4 ± 0.4 nM

Question: B31 was tested. Which Kd did it give?
Answer: 9.3 ± 0.6 nM

Question: B32 was tested. Which Kd did it give?
Answer: 34 ± 6 nM

Question: Which Kd does the source give for B33 here?
Answer: 28 ± 7 nM
